From the supplement of paper PMC7877785 come the findings set out here.

The series is described as follows: self-splicing fitness, log relative to wild type (ln ratio); higher = more splicing; Tetrahymena group I intron in knt gene, E. coli kanamycin selection, DiMSum; sequences stand for … in CUCUCU…GGAGGGAAAAGUUAUCAGGCAUGCACCUGGUAGCUAGUCUUUAAACCAAUAGAUUGCAUCGGUUUAAAAGGCAAGACCGUCAAAUUGCGGGAAAGGGGUCAACAGCCGUUCAGUACCAAGUCUCAGGGGAAACUUUGAGAUGGCCUUGCAAAGGGUAUGGUAAUAAGCUGACGGACAUGGUCCUAACCACGCAGCCAAGUCCUAAGUCAACAGAUCUUCUGUUGAUAUGGAUGCAGUUCACAGACUAAAUGUCGGUCGGGGAAGAUGUAUUCUUCUCAUAAGAUAUAGUCGGACCUCUCCUUAAUGGGAGCUAGCGGAUGAAGUGAUGCAACACUGGAGCCGCUGGGAACUAAUUUGUAUGCGAAAGUAUAUUGAUUAGUUUUGGAGUACUCGUGGUCG
The method in brief: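 A randomised library covering all eight P1ex-region intron nucleotides was built with the intron in the knt kanamycin-resistance gene on pET-22b(+) and held in E. coli BL21(DE3). Cells were grown overnight at 37°C or 30°C on LB agar, with or without 25 μg/mL kanamycin, plus 100 μg/mL carbenicillin, 50 μM IPTG and 0.2% rhamnose, and pooled colonies were amplicon-sequenced on an Illumina HiSeq 2500. DiMSum fitness is the error-weighted combination of wild-type-normalised replicate fold changes, kanamycin versus none.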

± gives the uncertainty stated by the source.

CGCGAGCAAUAUUACGAUUG: the “self-splicing fitness (ln)” value is -1.3 ± 0.12 (30 °C) and -0.15 ± 0.12 (37 °C).

Turning to CGCGAGCAAUAUUACGCAAU, the “self-splicing fitness (ln)” value by setting is: (30 °C) -4.68 ± 0.36; (37 °C) -2.83 ± 0.29.

Consider CGCGAGCAAUAUUACGCACU, for which the “self-splicing fitness (ln)” value runs as follows: (30 °C) -2.58 ± 0.13; (37 °C) -1.51 ± 0.13.

With CGCGAGCAAUAUUACGCUUU, the “self-splicing fitness (ln)” value is -3.44 ± 0.33 (30 °C) and -0.916 ± 0.24 (37 °C).

Take CGCGAGCAAUAUUACGGACC: the “self-splicing fitness (ln)” value (37 °C) was -1.47 ± 0.31.

Consider CGCGAGCAAUAUUACGGACU, for which the “self-splicing fitness (ln)” value reads like this: (30 °C) -1.82 ± 0.3; (37 °C) -0.107 ± 0.26.

For the sequence CGCGAGCAAUAUUACGGGAC, the “self-splicing fitness (ln)” value by setting is: (30 °C) -3.07 ± 0.25; (37 °C) -2.43 ± 0.45.

With CGCGAGCAAUAUUACGGUUU, the “self-splicing fitness (ln)” value reads like this: (30 °C) -4.02 ± 0.22; (37 °C) -2.55 ± 0.18.

Turning to CGCGAGCAAUAUUACGUAUA, the “self-splicing fitness (ln)” value (30 °C) was -3.38 ± 0.27 and the “self-splicing fitness (ln)” value (37 °C) was -1.24 ± 0.24.

In the case of CGCGAGCAAUAUUACGUAUU, the “self-splicing fitness (ln)” value is -3.09 ± 0.43 (30 °C) and -2.6 ± 0.39 (37 °C).

Consider CGCGAGCAAUAUUACGUCAG, for which the “self-splicing fitness (ln)” value is -1.19 ± 0.092 (30 °C) and -1.27 ± 0.11 (37 °C).

As to CGCGAGCAAUAUUACGUGUG, the “self-splicing fitness (ln)” value (30 °C) was -4.51 ± 0.24 and the “self-splicing fitness (ln)” value (37 °C) was -2.68 ± 0.13.

For the sequence CGCUAGCAAUAUUACGAAGU, the “self-splicing fitness (ln)” value runs as follows: (30 °C) -3.12 ± 0.22; (37 °C) -2.28 ± 0.31.

As to CGCUAGCAAUAUUACGAGAU, the “self-splicing fitness (ln)” value was -3.86 ± 0.19 (30 °C) and -3.36 ± 0.23 (37 °C).

Consider CGCUAGCAAUAUUACGAGCC, for which the “self-splicing fitness (ln)” value is -1.23 ± 0.2 (30 °C) and -0.554 ± 0.17 (37 °C).

Consider CGCUAGCAAUAUUACGAUCA, for which the “self-splicing fitness (ln)” value by setting is: (30 °C) -0.592 ± 0.16; (37 °C) -0.635 ± 0.13.

CGCUAGCAAUAUUACGAUUU: the “self-splicing fitness (ln)” value is, setting by setting: (30 °C) -3.41 ± 0.2; (37 °C) -1.42 ± 0.12.

On to CGCUAGCAAUAUUACGCCGG, for which the “self-splicing fitness (ln)” value is, setting by setting: (30 °C) -3.06 ± 0.29; (37 °C) -2.24 ± 0.45.

For the sequence CGCUAGCAAUAUUACGCCUU, the “self-splicing fitness (ln)” value is -2.49 ± 0.27 (30 °C) and -0.069 ± 0.19 (37 °C).

For the sequence CGCUAGCAAUAUUACGCGAA, the “self-splicing fitness (ln)” value (37 °C) was -2.95 ± 0.43.

Turning to CGCUAGCAAUAUUACGCGAU, the “self-splicing fitness (ln)” value was -3.59 ± 0.19 (30 °C) and -2.25 ± 0.2 (37 °C).

With CGCUAGCAAUAUUACGCUCG, the “self-splicing fitness (ln)” value by setting is: (30 °C) -1.72 ± 0.22; (37 °C) -1.02 ± 0.4.

As for CGCUAGCAAUAUUACGCUGA, the “self-splicing fitness (ln)” value (30 °C) was -2.69 ± 0.2 and the “self-splicing fitness (ln)” value (37 °C) was -2.26 ± 0.22.

As for CGCUAGCAAUAUUACGGCCC, the “self-splicing fitness (ln)” value is -1.74 ± 0.19 (30 °C) and 0.036 ± 0.24 (37 °C).

For the sequence CGCUAGCAAUAUUACGGCUC, the “self-splicing fitness (ln)” value (30 °C) is -1.15 ± 0.16 and the “self-splicing fitness (ln)” value (37 °C) is -0.2 ± 0.19.

Consider CGCUAGCAAUAUUACGGGCU, for which the “self-splicing fitness (ln)” value is -1.85 ± 0.17 (30 °C) and -1.33 ± 0.2 (37 °C).

Turning to CGCUAGCAAUAUUACGGUGC, the “self-splicing fitness (ln)” value runs as follows: (30 °C) -4.65 ± 0.34; (37 °C) -3.09 ± 0.25.

As for CGCUAGCAAUAUUACGGUUC, the “self-splicing fitness (ln)” value by setting is: (30 °C) -2.13 ± 0.21; (37 °C) -0.893 ± 0.26.

As to CGCUAGCAAUAUUACGUCAC, the “self-splicing fitness (ln)” value by setting is: (30 °C) -4.44 ± 0.42; (37 °C) -3.4 ± 0.37.

As to CGCUAGCAAUAUUACGUCGA, the “self-splicing fitness (ln)” value is -2.02 ± 0.35 (30 °C) and -1.78 ± 0.32 (37 °C).

For the sequence CGCUAGCAAUAUUACGUCGU, the “self-splicing fitness (ln)” value (30 °C) was -3.7 ± 0.37 and the “self-splicing fitness (ln)” value (37 °C) was -2.87 ± 0.23.

On to CGGAAGCAAUAUUACGAACG, for which the “self-splicing fitness (ln)” value is -3 ± 0.21 (30 °C) and -0.802 ± 0.24 (37 °C).

For the sequence CGGAAGCAAUAUUACGAAGU, the “self-splicing fitness (ln)” value (37 °C) is -2.81 ± 0.44.

CGGAAGCAAUAUUACGACAU: the “self-splicing fitness (ln)” value is -3.637 ± 0.026 (30 °C) and -2.32 ± 0.038 (37 °C).

In the case of CGGAAGCAAUAUUACGACCG, the “self-splicing fitness (ln)” value runs as follows: (30 °C) -3.04 ± 0.35; (37 °C) -2.26 ± 0.45.

For CGGAAGCAAUAUUACGACGU, the “self-splicing fitness (ln)” value reads like this: (30 °C) -2.55 ± 0.11; (37 °C) -0.27 ± 0.12.

Take CGGAAGCAAUAUUACGAUCA: the “self-splicing fitness (ln)” value reads like this: (30 °C) -0.698 ± 0.11; (37 °C) -0.039 ± 0.1.

Turning to CGGAAGCAAUAUUACGAUUA, the “self-splicing fitness (ln)” value (30 °C) was -1.17 ± 0.18 and the “self-splicing fitness (ln)” value (37 °C) is -1.56 ± 0.16.
